Paper PMC5608322, “Spontaneous non-canonical assembly of CcmK hexameric components from β-carboxysome shells of cyanobacteria” (PLoS ONE, 2017)
Numbering of substitutions follows the chain as printed. Names and notes keep the numbering of the source.

B1: NIR K2^-TH: triple mutant of CcmK2 Syn6803 with A63 A64 N65 replaced by NIR of CcmK1 (natural protein, Synechocystis sp. PCC6803, UniProt P72761 1-103, looked up)
chain: MSIAVGMIETRGFPAVVEAADSMVKAARVTLVGYEKIGSGRVTVIVRGDVSEVQASVSAGIENIRRVNGGEVLSTHIIARPHENLEYVLPIRYTEEVEQFRTY
notes: CcmK2, Synechocystis sp; PCC6803, as K2^-TH with residues 63-65 AAN replaced by NIR; TEV site between protein and tag as in K2^-TH; also called N^63IR K2^-TH 6803; source: E. coli BL21 (DE3), purified (TALON cobalt IMAC); not shown: His4, C-terminal, kept
B2: CcmK4 from Synechocystis sp. PCC6803 with N-terminal His4 tag and TEV site (^HT-K4) (natural protein, UniProt P73407 1-112, looked up)
chain: MSAQSAVGSIETIGFPGILAAADAMVKAGRITIVGYIRAGSARFTLNIRGDVQEVKTAMAAGIDAINRTEGADVKTWVIIPRPHENVVAVLPIDFSPEVEPFREAAEGLNRR
notes: CcmK4, Synechocystis sp; PCC6803, full-length gene, codon-optimized for E. coli; A TEV site stands between tag and protein; source: E. coli BL21 (DE3), purified (TALON cobalt IMAC); not shown: His4, N-terminal, kept
B3: CcmK4 from Synechocystis sp. PCC6803, TEV-proteolysis product of ^HT-K4 (^-K4) (natural protein, UniProt P73407 1-112, looked up)
chain: B2 chain
notes: CcmK4, Synechocystis sp; PCC6803, full-length gene, codon-optimized for E. coli; also called Syn6803 -K4; source: E. coli BL21 (DE3), purified (TALON cobalt IMAC), tag removed with turbo TEV protease; not shown: His4, N-terminal, cleaved
B4: CcmK4 from Synechocystis sp. PCC6803, TEV-proteolysis product of K4^-TH (K4^-) (natural protein, UniProt P73407 1-112, looked up)
chain: B2 chain
notes: CcmK4, Synechocystis sp; PCC6803, full-length gene, codon-optimized for E. coli; Sample partly degraded by proteolysis (species of similar but not identical mass in native MS); Measured mass indicated loss of the first Met residue; also called Syn6803 K4^-; source: E. coli BL21 (DE3), purified (TALON cobalt IMAC), tag removed with turbo TEV protease; not shown: His4, C-terminal, cleaved
B5: CcmK4 from Synechocystis sp. PCC6803 with C-terminal TEV site and His4 tag (K4^-TH) (natural protein, UniProt P73407 1-112, looked up)
chain: B2 chain
notes: CcmK4, Synechocystis sp; PCC6803, full-length gene, codon-optimized for E. coli; source: E. coli BL21 (DE3), purified (TALON cobalt IMAC); not shown: His4, C-terminal, kept
B6: CcmK1 from Synechocystis sp. PCC6803 with C-terminal TEV site and His4 tag (K1^-TH) (natural protein, UniProt P72760 1-111, looked up)
chain: MSIAVGMIETLGFPAVVEAADSMVKAARVTLVGYEKIGSGRVTVIVRGDVSEVQASVTAGIENIRRVNGGEVLSNHIIARPHENLEYVLPIRYTEAVEQFREIVNPSIIRR
notes: CcmK1, Synechocystis sp; PCC6803, full-length gene, codon-optimized for E. coli; A TEV protease recognition site stands between protein and His4 tag; also called K1^-TH 6803; CcmK1 Syn6803; source: E. coli BL21 (DE3), purified (TALON cobalt IMAC); not shown: His4, C-terminal, kept
B7: CcmK1 from Synechocystis sp. PCC6803, TEV-proteolysis product of K1^-TH (K1^-) (natural protein, UniProt P72760 1-111, looked up)
chain: B6 chain
notes: CcmK1, Synechocystis sp; PCC6803, full-length gene, codon-optimized for E. coli; Measured mass indicated loss of the first Met residue; also called untagged K1^- 6803; Syn6803 K1^-; source: E. coli BL21 (DE3), purified (TALON cobalt IMAC), tag removed with turbo TEV protease; not shown: His4, C-terminal, cleaved
B8: D49A mutant of K1^-TH (CcmK1 Syn6803) (natural protein, Synechocystis sp. PCC6803, UniProt P72760 1-111, looked up)
chain: B6 chain with D49A
notes: CcmK1, Synechocystis sp; PCC6803, as K1^-TH with D49A; TEV site between protein and tag as in K1^-TH; source: E. coli BL21 (DE3), purified (TALON cobalt IMAC); not shown: His4, C-terminal, kept
B9: AAN K1^-TH: triple mutant of CcmK1 Syn6803 with N63 I64 R65 replaced by AAN of CcmK2 (natural protein, Synechocystis sp. PCC6803, UniProt P72760 1-111, looked up)
chain: B6 chain with N63A, I64A, R65N
notes: CcmK1, Synechocystis sp; PCC6803, as K1^-TH with residues 63-65 NIR replaced by AAN; TEV site between protein and tag as in K1^-TH; also called A^63AN K1^-TH 6803; source: E. coli BL21 (DE3), purified (TALON cobalt IMAC); not shown: His4, C-terminal, kept
B10: R28A/R80A double mutant of K1^-TH (CcmK1 Syn6803) (natural protein, Synechocystis sp. PCC6803, UniProt P72760 1-111, looked up)
chain: B6 chain with R28A, R80A
notes: CcmK1, Synechocystis sp; PCC6803, as K1^-TH with R28A and R80A; TEV site between protein and tag as in K1^-TH; source: E. coli BL21 (DE3), purified (TALON cobalt IMAC); not shown: His4, C-terminal, kept
B11: R28A mutant of K1^-TH (CcmK1 Syn6803) (natural protein, Synechocystis sp. PCC6803, UniProt P72760 1-111, looked up)
chain: B6 chain with R28A
notes: CcmK1, Synechocystis sp; PCC6803, as K1^-TH with R28A; TEV site between protein and tag as in K1^-TH; source: E. coli BL21 (DE3), purified (TALON cobalt IMAC); not shown: His4, C-terminal, kept
B12: R80A mutant of K1^-TH (CcmK1 Syn6803) (natural protein, Synechocystis sp. PCC6803, UniProt P72760 1-111, looked up)
chain: B6 chain with R80A
notes: CcmK1, Synechocystis sp; PCC6803, as K1^-TH with R80A; TEV site between protein and tag as in K1^-TH; source: E. coli BL21 (DE3), purified (TALON cobalt IMAC); not shown: His4, C-terminal, kept
B13: CcmK2 from Synechococcus elongatus PCC 7942 with C-terminal His6 tag (K2^-H Syn7942) (natural protein, Synechococcus elongatus PCC7942, UniProt Q03511 1-102, looked up)
chain: MPIAVGMIETLGFPAVVEAADAMVKAARVTLVGYEKIGSGRVTVIVRGDVSEVQASVSAGLDSAKRVAGGEVLSHHIIARPHENLEYVLPIRYTEAVEQFRM
notes: also called K2^-H 7942; Syn7942 K2^-H; source: E. coli BL21 (DE3), purified (TALON cobalt IMAC); not shown: His6, C-terminal, kept

Assays:
[1] = molecular target: the molecule itself; test: AFM imaging; purified protein adsorbed on freshly cleaved mica, imaged in buffer in contact mode at ambient temperature; 10 mM NaPi, MES or Tris, 300 mM NaCl, pH 5.0 to 8.0, some with 0.5 mM additives; hexamers tiling into 2D assemblies
[2] = molecular target: the molecule itself; test: SEC; Beckman Ultraspherogel SEC2000 column, 20 mM Tris-HCl, 300 mM NaCl, pH 7; size by comparison with calibration standards; oligomer of the protein with itself
[3] = molecular target: the molecule itself; test: native MS; nano-ESI Q-ToF, positive ion mode, 150 mM ammonium acetate pH 8, soft ionization; tandem MS/MS (CID) of hexamer ions gives monomers and pentamers; oligomer of the protein with itself

Protein	binding result [1]	stoichiometry N [3]	also measured
B1	binds		
B2			stoichiometry N [2]: 6
B3		6	
B4		6	
B5			stoichiometry N [2]: 6
B6			stoichiometry N [2]: 6
B7		6	
B8	binds		
B9	binds		
B10	binds		
B11	binds		
B12	binds		
B13		6	
